Assay results reported in US20180072816A1.

Biological target: human CXCR4 (human) (UniProt P61073)
Assay: cell-based or functional assay

Chain of human CXCR4 (human) (P61073 whole entry): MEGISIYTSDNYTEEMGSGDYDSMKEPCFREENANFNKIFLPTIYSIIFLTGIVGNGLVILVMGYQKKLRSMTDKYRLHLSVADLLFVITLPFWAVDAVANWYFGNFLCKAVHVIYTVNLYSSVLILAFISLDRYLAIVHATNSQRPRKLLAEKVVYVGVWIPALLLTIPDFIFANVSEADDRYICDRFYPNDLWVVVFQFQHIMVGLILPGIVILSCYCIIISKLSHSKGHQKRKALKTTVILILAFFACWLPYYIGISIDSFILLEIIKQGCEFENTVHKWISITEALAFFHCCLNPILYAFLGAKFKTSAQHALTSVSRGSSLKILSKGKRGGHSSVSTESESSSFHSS

anti-CXCR4 MAb 12G5 (antibody)
IC50 (nM) in β-Arrestin BRET assay (Antagonist mode in the presence of 100 nM SDF-1): 64 nM
